The labels stand for the following.
T1: rat APJ receptor (rat, UniProt Q9JHG3 1-377)
T1 sequence (looked up): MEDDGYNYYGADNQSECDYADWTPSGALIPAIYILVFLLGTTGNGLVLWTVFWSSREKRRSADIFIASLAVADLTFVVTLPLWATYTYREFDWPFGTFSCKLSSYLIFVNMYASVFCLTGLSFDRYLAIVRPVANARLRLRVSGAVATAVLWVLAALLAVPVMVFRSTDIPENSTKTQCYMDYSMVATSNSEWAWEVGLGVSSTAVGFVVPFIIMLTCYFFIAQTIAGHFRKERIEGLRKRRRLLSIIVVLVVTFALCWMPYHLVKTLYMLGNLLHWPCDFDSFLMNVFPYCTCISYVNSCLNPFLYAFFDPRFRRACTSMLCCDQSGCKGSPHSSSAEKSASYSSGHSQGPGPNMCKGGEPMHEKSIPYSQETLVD

T2: human APJ receptor (human, UniProt P35414 1-380)
T2 sequence (looked up): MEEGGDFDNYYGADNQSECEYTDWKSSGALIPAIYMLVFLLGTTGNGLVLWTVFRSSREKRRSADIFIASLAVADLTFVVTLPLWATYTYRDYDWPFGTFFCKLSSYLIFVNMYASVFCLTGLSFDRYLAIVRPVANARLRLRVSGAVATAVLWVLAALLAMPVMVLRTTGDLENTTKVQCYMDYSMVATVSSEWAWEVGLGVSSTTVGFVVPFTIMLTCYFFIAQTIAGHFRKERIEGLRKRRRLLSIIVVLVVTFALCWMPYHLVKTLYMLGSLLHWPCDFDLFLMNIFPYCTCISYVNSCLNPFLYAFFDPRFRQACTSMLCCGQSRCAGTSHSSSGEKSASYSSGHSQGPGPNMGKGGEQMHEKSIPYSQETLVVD

T3: human APJ receptor (human, UniProt P35414 1-380)
T3 sequence (looked up): T2 sequence (looked up)

T4: rat APJ receptor (rat, UniProt Q9JHG3 1-377)
T4 sequence (looked up): T1 sequence (looked up)

B1: apelin polypeptide SEQ ID NO: 692 (peptide)
peptide: [code O]F[hArg][hArg][BhLeu][hArg]P[hArg][Cha]SHKG[Oic][Nle]P[Phe(4-Cl)]
modifications: reading uncertain; also: printed as OF[hArg][hArg][BhLeu][hArg]P[hArg][Cha]SHKG[Oic][Nle]P[4-Cl-F]
B2: apelin polypeptide SEQ ID NO: 97 (peptide)
peptide: KFRRQRP[hArg][Cha]SHKG[Oic][Nle]P[Phe(4-Cl)]-OH
modifications: not fully specified (N-terminus); printed as [MerPr](20K mPEGacetamide)KFRRQRP[hArg][Cha]SHKG[Oic][Nle]P[4-Cl-F]{COOH}; also: 20K mPEG acetamide conjugate on MerPr
B3: apelin polypeptide SEQ ID NO: 56 (peptide)
peptide: Ac-[hArg][hArg]Q[hArg]P[NMeR][Cha]SHKG[Oic][Nle]P[Phe(4-Cl)]-OH
SMILES: CCCC[C@H](NC(=O)[C@@H]1C[C@@H]2CCCC[C@@H]2N1C(=O)CNC(=O)[C@H](CCCCN)NC(=O)[C@H](Cc1c[nH]cn1)NC(=O)[C@H](CO)NC(=O)[C@H](CC1CCCCC1)NC(=O)[C@H](CCCNC(=N)N)N(C)C(=O)[C@@H]1CCCN1C(=O)[C@H](CCCCNC(=N)N)NC(=O)[C@H](CCC(N)=O)NC(=O)[C@H](CCCCNC(=N)N)NC(=O)[C@H](CCCCNC(=N)N)NC(C)=O)C(=O)N1CCC[C@H]1C(=O)N[C@@H](Cc1ccc(Cl)cc1)C(=O)O
B4: apelin polypeptide SEQ ID NO: 686 (peptide)
peptide: [code O][BhPhe][hArg][hArg]Q[hArg]P[hArg][Cha]SHKG[Oic][Nle]P[Phe(4-Cl)]
modifications: reading uncertain; also: printed as O[BhPhe][hArg][hArg]Q[hArg]P[hArg][Cha]SHKG[Oic][Nle]P[4-Cl-F]
B5: apelin polypeptide SEQ ID NO: 708 (peptide)
peptide: [code O]F[hArg][hArg]Q[hArg]P[hArg][Cha]SHKG[Oic][βAla]P[Phe(4-Cl)]
modifications: reading uncertain; also: printed as OF[hArg][hArg]Q[hArg]P[hArg][Cha]SHKG[Oic][bAla]P[4-Cl-F]
B6: SEQ ID NO: 334 (peptide)
peptide: Tridecanoyl-[γGlu][AEEA][AEEA][hArg][dR]Q[Nle]P[dR][NMeL]AAKG[Oic][Phe(4-I)]P[dBip]-OH
SMILES: CCCCCCCCCCCCC(=O)N[C@@H](CCC(=O)NCCOCCOCC(=O)NCCOCCOCC(=O)N[C@@H](CCCCNC(=N)N)C(=O)N[C@H](CCCNC(=N)N)C(=O)N[C@@H](CCC(N)=O)C(=O)N[C@@H](CCCC)C(=O)N1CCC[C@H]1C(=O)N[C@H](CCCNC(=N)N)C(=O)N(C)[C@@H](CC(C)C)C(=O)N[C@@H](C)C(=O)N[C@@H](C)C(=O)N[C@@H](CCCCN)C(=O)NCC(=O)N1[C@H](C(=O)N[C@@H](Cc2ccc(I)cc2)C(=O)N2CCC[C@H]2C(=O)N[C@H](Cc2ccc(-c3ccccc3)cc2)C(=O)O)C[C@@H]2CCCC[C@@H]21)C(=O)O
B7: SEQ ID NO: 312 (peptide)
peptide: Tridecanoyl-[γGlu][AEEA][AEEA][hArg][dR]Q[hArg]P[dR][NMeL]SH[Nle]G[Oic][Phe(4-I)]P[dBip]-OH
SMILES: CCCCCCCCCCCCC(=O)N[C@@H](CCC(=O)NCCOCCOCC(=O)NCCOCCOCC(=O)N[C@@H](CCCCNC(=N)N)C(=O)N[C@H](CCCNC(=N)N)C(=O)N[C@@H](CCC(N)=O)C(=O)N[C@@H](CCCCNC(=N)N)C(=O)N1CCC[C@H]1C(=O)N[C@H](CCCNC(=N)N)C(=O)N(C)[C@@H](CC(C)C)C(=O)N[C@@H](CO)C(=O)N[C@@H](Cc1c[nH]cn1)C(=O)N[C@@H](CCCC)C(=O)NCC(=O)N1[C@H](C(=O)N[C@@H](Cc2ccc(I)cc2)C(=O)N2CCC[C@H]2C(=O)N[C@H](Cc2ccc(-c3ccccc3)cc2)C(=O)O)C[C@@H]2CCCC[C@@H]21)C(=O)O
B8: SEQ ID NO: 322 (peptide)
peptide: Tridecanoyl-[γGlu][AEEA][AEEA][hArg][dR]Q[Nle]P[dR][NMeL]AHKG[Oic][Phe(4-I)]P[dBip]-OH
SMILES: CCCCCCCCCCCCC(=O)N[C@@H](CCC(=O)NCCOCCOCC(=O)NCCOCCOCC(=O)N[C@@H](CCCCNC(=N)N)C(=O)N[C@H](CCCNC(=N)N)C(=O)N[C@@H](CCC(N)=O)C(=O)N[C@@H](CCCC)C(=O)N1CCC[C@H]1C(=O)N[C@H](CCCNC(=N)N)C(=O)N(C)[C@@H](CC(C)C)C(=O)N[C@@H](C)C(=O)N[C@@H](Cc1c[nH]cn1)C(=O)N[C@@H](CCCCN)C(=O)NCC(=O)N1[C@H](C(=O)N[C@@H](Cc2ccc(I)cc2)C(=O)N2CCC[C@H]2C(=O)N[C@H](Cc2ccc(-c3ccccc3)cc2)C(=O)O)C[C@@H]2CCCC[C@@H]21)C(=O)O

Starred links: 1 amine or outer side, 2 acyl side, 3 side chain; linkers in the order of their positions; H or OH if unused. Non-standard residues stand in square brackets, D forms with d. Primed or numbered codes have the meaning given here. No end group written: not given here. *: point of attachment. Pra′ = its azide, alkyne or alkene has reacted where a group follows in round brackets; Atz = 3-(1,2,3-triazol-4-yl)alanine, O=C([C@H](Cc1c[nH]nn1)N[*:1])[*:2]; Propanoyl(3-triazol-4-yl) = O=C(CCc1cn([*:1])nn1)[*:2]; PEG12 = NCCOCCOCCOCCOCCOCCOCCOCCOCCOCCOCCOCCOCCC(=O)O; dBip = N[C@H](Cc1ccc(-c2ccccc2)cc1)C(=O)O; BhLeu = source's own code, no definition; BhPhe = source's own code, no definition; Oic = O=C(O)[C@@H]1C[C@@H]2CCCC[C@@H]2N1; Phe(4-Cl) = N[C@@H](Cc1ccc(Cl)cc1)C(=O)O; dPhe(4-Cl) = N[C@H](Cc1ccc(Cl)cc1)C(=O)O; Phe(4-I) = N[C@@H](Cc1ccc(I)cc1)C(=O)O; γGlu = O=C(O)[C@H](CCC(=O)[*:2])N[*:1]; d1Nal = N[C@H](Cc1cccc2ccccc12)C(=O)O; NMeR = CN[C@@H](CCCNC(=N)N)C(=O)O; Tridecanoyl = CCCCCCCCCCCCC(=O)*; hArg = N=C(N)NCCCC[C@H](N)C(=O)O; Cha = N[C@@H](CC1CCCCC1)C(=O)O; NMeL = CN[C@@H](CC(C)C)C(=O)O; AC4Abu″ = not defined here; code O = not defined here; Nle = CCCC[C@H](N)C(=O)O; Orn = NCCC[C@H](N)C(=O)O; AEEA = NCCOCCOCC(=O)O; βAla = NCCC(=O)O; Mpa = O=C(O)CCS

The first test has as its target T1, rat APJ receptor. In words: cell-based or functional assay.
As for {20K‑mPEGReg-Propanoyl(3-triazol-4-yl)}-[hArg][dR]Q[hArg]P[dR][NMeL]SHKG[Oic][Phe(4-I)]P[dBip]-OH (also: 20 kDa PEG conjugate) [apelin polypeptide SEQ ID NO: 103], the “EC50 Rat APJ Receptor” value stood at 52.2 nM.
For Ac-[Atz](20K‑mPEG)KFRRQRP[hArg][Cha]SHKG[Oic][Nle]P[Phe(4-Cl)]-OH [apelin polypeptide SEQ ID NO: 105], the “EC50 Rat APJ Receptor” value was found to be 0.285 nM.
Still for that read-out and setting: for Tridecanoyl-[AC4Abu″][AEEA][AEEA][hArg]Q[dR]P[NMeR][Cha]SHKG[Oic][Nle][d1Nal]-OH (reading uncertain) [apelin polypeptide SEQ ID NO: 165] the value was 30.3 nM.
Still for that read-out and setting: the value for [PEG12]KFRRQRP[hArg][Cha]SHKG[Oic][Nle]P[Phe(4-Cl)]-OH (also: PEG-apelin peptide conjugate) [apelin polypeptide SEQ ID NO: 102] was 0.18 nM; that for B1 was 0.503 nM.
As for Ac-[Pra′](20K‑mPEGReg)[Orn]F[hArg][hArg]QRP[hArg][NMeL]SHKG[Oic][Phe(4-I)]P[dBip]-OH [apelin polypeptide SEQ ID NO: 107], the “EC50 Rat APJ Receptor” value came to 10 nM.
Same read-out and setting: the value for B2 was 0.253 nM; that for Tridecanoyl-[AC4Abu″][AEEA][AEEA][hArg]Q[dR]P[NMeR][Cha]SHKG[Oic][Nle]P[dPhe(4-Cl)]-OH (reading uncertain) [apelin polypeptide SEQ ID NO: 230] was 13.8 nM.
The same measure, in the same setting: the value for Ac-[Atz](20K‑mPEG)LRP[hArg][Cha]SHKG[Oic][Nle]P[Phe(4-Cl)]-OH [apelin polypeptide SEQ ID NO: 106] was 47.3 nM; that for {20K mPEGacetamide}-[Mpa]QRP[hArg][Cha]SHKG[Oic][Nle]P[Phe(4-Cl)]-OH (numbers in words are those of the source; also: 20 kDa PEG conjugate) [apelin polypeptide SEQ ID NO: 101] was 150 nM; that for {20K‑mPEGReg-Propanoyl(3-triazol-4-yl)}-[hArg]RQ[hArg]PR[NMeL]SHKG[Oic][Phe(4-I)]P[dBip]-OH (also: 20 kDa PEG conjugate) [apelin polypeptide SEQ ID NO: 104] was 45 nM.
Regarding B3, the “EC50 Rat APJ Receptor” value amounted to 0.915 nM.
Same read-out and setting: for B4 the value was 0.188 nM.

For the next test, the target named is T2, human APJ receptor. In words: cell-based or functional assay.
As for {20K‑mPEGReg-Propanoyl(3-triazol-4-yl)}-[hArg][dR]Q[hArg]P[dR][NMeL]SHKG[Oic][Phe(4-I)]P[dBip]-OH (also: 20 kDa PEG conjugate) [apelin polypeptide SEQ ID NO: 103], the “EC50 Human APJ Receptor” value came to 34.2 nM.
The same measure, in the same setting: the value for Tridecanoyl-[AC4Abu″][AEEA][AEEA]RQRP[hArg][NMeL]SHKG[Oic][Phe(4-I)]P[dBip]-OH (reading uncertain) [apelin polypeptide SEQ ID NO: 212] was 0.515 nM.
The same measure, in the same setting: the value for B5 was 7.46 nM; that for [hArg]Q[hArg]P[NMeR][Cha]SHKG[Oic][Nle]P[Phe(4-Cl)] [apelin polypeptide SEQ ID NO: 674] was 0.152 nM; that for Ac-[Atz](20K‑mPEG)KFRRQRP[hArg][Cha]SHKG[Oic][Nle]P[Phe(4-Cl)]-OH [apelin polypeptide SEQ ID NO: 105] was 0.187 nM.
Still for that read-out and setting: the value for [PEG12]KFRRQRP[hArg][Cha]SHKG[Oic][Nle]P[Phe(4-Cl)]-OH (also: PEG-apelin peptide conjugate) [apelin polypeptide SEQ ID NO: 102] was 0.083 nM.
Consider Ac-[Pra′](20K‑mPEGReg)[Orn]F[hArg][hArg]QRP[hArg][NMeL]SHKG[Oic][Phe(4-I)]P[dBip]-OH [apelin polypeptide SEQ ID NO: 107], for which the “EC50 Human APJ Receptor” value turned out to be 10.5 nM.
On to Ac-[Atz](20K‑mPEG)LRP[hArg][Cha]SHKG[Oic][Nle]P[Phe(4-Cl)]-OH [apelin polypeptide SEQ ID NO: 106], for which the “EC50 Human APJ Receptor” value stood at 3.22 nM.
The same measure, in the same setting: the value for {20K mPEGacetamide}-[Mpa]QRP[hArg][Cha]SHKG[Oic][Nle]P[Phe(4-Cl)]-OH (numbers in words are those of the source; also: 20 kDa PEG conjugate) [apelin polypeptide SEQ ID NO: 101] was 46.7 nM; that for {20K‑mPEGReg-Propanoyl(3-triazol-4-yl)}-[hArg]RQ[hArg]PR[NMeL]SHKG[Oic][Phe(4-I)]P[dBip]-OH (also: 20 kDa PEG conjugate) [apelin polypeptide SEQ ID NO: 104] was 18.9 nM.

The target of a further test is T3, human APJ receptor. In words: cell-based or functional assay.
As for B6, the “EC50 Human APJ Receptor” value worked out at 34.1 nM.
Still for that read-out and setting: for B7 the value was 13.6 nM; for B8, 16.3 nM.

In a further test the target is T4, rat APJ receptor. In words: cell-based or functional assay.
As to B6, the “EC50 Rat APJ Receptor” value turned out to be 44.7 nM.
Same read-out and setting: the value for B7 was 10.6 nM; that for B8 was 26.5 nM.
